This assay addresses T1, InvF (tag-free, purified) (S. Typhimurium, UniProt P69343 1-216).
T1 sequence: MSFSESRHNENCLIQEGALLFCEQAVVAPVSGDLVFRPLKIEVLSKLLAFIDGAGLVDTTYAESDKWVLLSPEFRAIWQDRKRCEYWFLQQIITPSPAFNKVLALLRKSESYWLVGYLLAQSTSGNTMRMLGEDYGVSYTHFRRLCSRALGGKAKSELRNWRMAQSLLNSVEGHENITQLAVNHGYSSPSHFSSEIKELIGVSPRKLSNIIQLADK
The assay can be described thus: ITC. The settings on record: both partners purified.

B1: SicA (tag-free, purified) (natural protein)
chain: MDYQNNVSEERVAEMIWDAVSEGATLKDVHGIPQDMMDGLYAHAYEFYNQGRLDEAETFFRFLCIYDFYNPDYTMGLAAVCQLKKQFQKACDLYAVAFTLLKNDYRPVFFTGQCQLLMRKAAKARQCFELVNERTEDESLRAKALVYLEALKTAETEQHSEQEKE
notes: also called wild-type SicA
For the molecule B1, the binding result was “binds”.

The values above are taken from PMC9637222 (Nature Communications, 2022).
